Laboratory results: patent US20110045046A1
Where no end group is shown, it is not given here. Side-chain parts run from the residue outwards.

Legend:
HLA-A*0206 (human) = experiment: MHC binding assay with purified MHC molecules
[1] = molecular target: T1, H-2K^b class I MHC molecule (mouse); experiment: K^b binding capacity
T1 chain 1: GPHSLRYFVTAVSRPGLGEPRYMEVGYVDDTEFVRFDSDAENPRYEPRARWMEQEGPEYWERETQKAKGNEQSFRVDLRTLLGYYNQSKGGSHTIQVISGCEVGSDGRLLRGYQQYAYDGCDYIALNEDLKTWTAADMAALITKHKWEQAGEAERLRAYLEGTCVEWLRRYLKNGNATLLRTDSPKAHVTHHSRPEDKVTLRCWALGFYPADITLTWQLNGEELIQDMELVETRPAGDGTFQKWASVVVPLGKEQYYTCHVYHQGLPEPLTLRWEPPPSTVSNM
T1 chain 2: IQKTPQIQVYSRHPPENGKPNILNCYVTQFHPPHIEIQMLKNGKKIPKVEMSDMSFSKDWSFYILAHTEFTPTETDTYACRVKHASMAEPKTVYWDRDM

HLA-A*0201 (human) [2] = experiment: MHC binding assay with purified MHC molecules
HLA-A*0202 (human) = experiment: MHC binding assay with purified MHC molecules
HLA-A*0203 (human) [3] = experiment: MHC binding assay with purified MHC molecules
HLA-A*0201 (human) [4] = experiment: inhibition of binding of a radioiodinated peptide to the MHC molecule (50% inhibition; column headed KD)
HLA-A*0203 (human) [5] = experiment: as above

Binder	IC50 (HLA-A*0206 (human)) [nM]	IC50 (HLA-A*0201 (human) [2]) [nM]	IC50 (HLA-A*0202 (human)) [nM]	IC50 (HLA-A*0203 (human) [3]) [nM]	also measured
ALASAAAAV (modifications not checked)	266				
AIIAS([GalNAc-Gal])FAAL [AIIA(β-Gal-[1->3]-α-GalNAc-O-serine)FAAL]					IC50 [1]: 7 nM
TLTSCNTSV (modifications not checked) [TLT(GalNAc-O-S)CNTSV]	24	0.72	15	8.2	
ALASAAAAV (modifications not checked) [ALA(GALNAc-O-S)SAAAAV]	81				
LLLLTVLTV (modifications not checked) [LLLL(Tn-T)LTV]					Kd (HLA-A*0201 (human) [4]): 1300 nM; Kd (HLA-A*0203 (human) [5]): 4290 nM
TLTSCNTSV (modifications not checked)	15	0.29	8.1	13	
